The values below come from PMC7483680 (Experimental parasitology, 2020).

The target of the assay is T1, recombinant GST-tagged wild-type Toxoplasma gondii GCN5b bromodomain (BRD) (Toxoplasma gondii, UniProt S8F3V2 877-986).
T1 sequence (looked up): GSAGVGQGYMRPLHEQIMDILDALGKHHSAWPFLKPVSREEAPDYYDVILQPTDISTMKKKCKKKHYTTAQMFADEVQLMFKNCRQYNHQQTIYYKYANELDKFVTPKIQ
Kind of assay: pull-down.

With SGRGKGGKGLGKGGAKRH (peptide, UniProt P62805 2-19, looked up, acetyl-lysine at K5, K8, K12 and K16; biotin (position not given)) [biotinylated tetra-acetylated histone H4 peptide (K5/8/12/16), residues 1-18 of human histone H4], the binding result was “binds”.
